Substitutions are numbered along the chain they refer to.
Experiments:
[1] = target: T1, recombinant mouse transferrin receptor 1 (rmTfR-1) (mouse, UniProt Q62351 89-763); assay: ELISA, monomer bound at pH 7 to rmTfR-1, washed 3 x 3 min at pH 7.2 or pH 5.2, HRP anti-FLAG [panel VNAR H11 on mTfR-1]
T1 construct: extracellular domain; also called mouse TfR-1
Procedure: (§1) VNARs were purified from 500 mL bacterial cultures which were grown in auto-induction medium (Novagen) and periplasmic fractions were extracted by osmotic shock by resuspending bacteria in TES buffer (50 mM Tris, 1 mM EDTA, 20% Sucrose) mixed with an equal volume of TES diluted 1:5 in water. After 30 minutes on ice, lysates were clarified by centrifugation and the salt concentrations were adjusted to 500 mM NaCl and 10 mM imidazole in 1×PBS. Periplasmic extracts were then purified with Nickel-Sepharose resin (Qiagen), washed in 1×PBS, 10 mM imidazole, 500 mM NaCl, and then eluted in 1×PBS, 500 mM imidazole, 500 mM NaCl. The purified protein was then buffer-exchanged against PBS and concentrated by centrifugation with Vivaspin 20 filters (Sartorius, MWCO 5000). Endotoxin was removed using VivaPure Q mini column (Sartorius) and the protein was sterile filtered (0.22 μm). After estimating the protein concentration using Bradford reagent (Pierce), the purified protein was stored in frozen aliquots. EC50 binding curves of purified VNAR monomers to immobilized to human or mouse TfR-1 ([…]) were determined by standard protein ELISA an HRP-conjugate anti-FLAG M2 antibody. For pH binding sensitivity testing, purified monomer was bound at pH7 and then washed 3 times for 3 min at either pH5.2 or pH7.2.

[2] = target: T2, recombinant human transferrin receptor 1 (rhTfR-1) (human, UniProt P02786 89-760); assay: ELISA, purified VNAR monomer on plate-adsorbed rhTfR-1, HRP anti-FLAG [panel HUMAN TfR BINDING]
T2 construct: extracellular domain; also called human TfR-1; human TfR1
Procedure: as §1

[3] = target: T2, recombinant human transferrin receptor …; assay: ELISA, monomer bound at pH 7 to rhTfR-1, washed 3 x 3 min at pH 7.2 or pH 5.2, HRP anti-FLAG [panel VNAR G02 on hTfR-1]
Procedure: as §1

[4] = target: T1, recombinant mouse transferrin receptor …; assay: ELISA, monomer bound at pH 7 to rmTfR-1, washed 3 x 3 min at pH 7.2 or pH 5.2, HRP anti-FLAG [panel VNAR G02 on mTfR-1]
Procedure: as §1

[5] = target: T3, human transferrin receptor 2 (hTfR-2) (human, UniProt Q9UP52 105-801, limits assumed); assay: ELISA on plate-coated hTfR2 (Example 15, as in Example 1D) [panel hTfR2]
T3 construct: also called human TfR-2
T3 sequence (looked up): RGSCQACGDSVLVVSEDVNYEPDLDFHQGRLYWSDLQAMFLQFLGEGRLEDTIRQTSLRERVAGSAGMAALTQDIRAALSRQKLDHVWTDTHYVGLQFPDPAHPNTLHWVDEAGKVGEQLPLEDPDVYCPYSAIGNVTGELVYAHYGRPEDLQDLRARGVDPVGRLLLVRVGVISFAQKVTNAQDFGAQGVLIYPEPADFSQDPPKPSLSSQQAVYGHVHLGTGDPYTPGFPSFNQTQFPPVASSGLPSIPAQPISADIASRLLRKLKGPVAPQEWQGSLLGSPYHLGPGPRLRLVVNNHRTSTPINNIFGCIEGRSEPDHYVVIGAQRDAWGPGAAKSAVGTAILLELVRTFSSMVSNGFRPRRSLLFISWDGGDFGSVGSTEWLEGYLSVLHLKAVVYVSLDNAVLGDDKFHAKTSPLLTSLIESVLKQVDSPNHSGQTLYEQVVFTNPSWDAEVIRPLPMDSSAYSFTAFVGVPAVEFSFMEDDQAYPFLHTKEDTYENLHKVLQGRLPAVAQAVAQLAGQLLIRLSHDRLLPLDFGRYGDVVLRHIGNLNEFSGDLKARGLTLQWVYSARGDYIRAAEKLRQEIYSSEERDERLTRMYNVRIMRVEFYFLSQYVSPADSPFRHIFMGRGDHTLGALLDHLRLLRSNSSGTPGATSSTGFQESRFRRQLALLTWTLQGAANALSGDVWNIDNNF
Procedure: (§2) The binding specificity of H01-Fc and F02-Fc for hTfR-1 and hTfR-2 were determined by an ELISA as described in Example 1D. Anti-TfR-2 was used as a positive control for TfR-2 binding. […] Both H01-Fc […] F02 Fc bound hTfR-1 with high specificity (˜100 nM) and neither bound hTfR-2 (FIG. 18).

[6] = target: T2, recombinant human transferrin receptor …; assay: ELISA on plate-coated hTfR1 (Example 15, as in Example 1D) [panel hTfR1]
Procedure: as §2

[7] = target: T1, recombinant mouse transferrin receptor …; assay: EC50 on recombinant target, presumably ELISA as in Example 8B
Procedure: (§3) To test whether the bispecific molecules retained binding to both transferrin receptor and BACE1, the purified proteins were titrated against either hTfR, mTfR, or BACE1 adsorbed to the solid phase of an ELISA plate. Binding was measured with an […] anti-human-Fc antibody (Example 8; Table 3).
(§4) To test whether the bispecific molecules retained binding to both transferrin receptor and BACE1, the purified proteins were titrated against hTfR, mTfR, or BACE1 adsorbed to the solid phase of an ELISA plate. Binding was measured with an HRP-labelled anti-human-Fc antibody.

[8] = target: T1, recombinant mouse transferrin receptor …; assay: ELISA; target adsorbed to plate; HRP anti-human-Fc detection
Procedure: as §3, §4

[9] = target: T1, recombinant mouse transferrin receptor …; assay: ELISA, purified VNAR monomer on plate-adsorbed rmTfR-1, HRP anti-FLAG [panel MOUSE TfR BINDING]
Procedure: as §1

[10] = target: T1, recombinant mouse transferrin receptor …; assay: competitive phage ELISA
[11] = target: T2, recombinant human transferrin receptor …; assay: competitive phage ELISA
[12] = target: T1, recombinant mouse transferrin receptor …; assay: ELISA, monomer bound at pH 7 to rmTfR-1, washed 3 x 3 min at pH 7.2 or pH 5.2, HRP anti-FLAG [panel VNAR C11 on mTfR-1]
Procedure: as §1

[13] = target: T2, recombinant human transferrin receptor …; assay: ELISA, monomer bound at pH 7 to rhTfR-1, washed 3 x 3 min at pH 7.2 or pH 5.2, HRP anti-FLAG [panel VNAR C11 on hTfR-1]
Procedure: as §1

T1 sequence (Q62351 89-763): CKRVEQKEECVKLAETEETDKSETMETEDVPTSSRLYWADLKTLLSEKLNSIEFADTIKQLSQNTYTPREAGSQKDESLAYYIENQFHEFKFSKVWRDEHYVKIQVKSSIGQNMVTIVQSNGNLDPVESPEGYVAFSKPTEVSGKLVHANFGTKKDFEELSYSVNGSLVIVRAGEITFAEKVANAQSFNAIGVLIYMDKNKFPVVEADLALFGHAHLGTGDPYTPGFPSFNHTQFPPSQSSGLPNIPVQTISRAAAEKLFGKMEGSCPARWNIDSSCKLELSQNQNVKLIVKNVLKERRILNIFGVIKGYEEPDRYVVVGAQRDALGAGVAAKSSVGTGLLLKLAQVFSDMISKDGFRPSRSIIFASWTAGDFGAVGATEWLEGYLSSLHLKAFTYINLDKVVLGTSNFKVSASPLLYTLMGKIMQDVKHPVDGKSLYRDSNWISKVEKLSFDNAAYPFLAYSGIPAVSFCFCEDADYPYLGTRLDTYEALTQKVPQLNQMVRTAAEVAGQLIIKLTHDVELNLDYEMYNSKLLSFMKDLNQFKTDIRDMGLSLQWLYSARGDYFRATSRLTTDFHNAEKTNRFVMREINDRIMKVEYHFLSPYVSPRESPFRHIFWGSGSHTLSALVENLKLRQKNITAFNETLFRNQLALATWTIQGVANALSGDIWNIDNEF
T2 sequence (P02786 89-760): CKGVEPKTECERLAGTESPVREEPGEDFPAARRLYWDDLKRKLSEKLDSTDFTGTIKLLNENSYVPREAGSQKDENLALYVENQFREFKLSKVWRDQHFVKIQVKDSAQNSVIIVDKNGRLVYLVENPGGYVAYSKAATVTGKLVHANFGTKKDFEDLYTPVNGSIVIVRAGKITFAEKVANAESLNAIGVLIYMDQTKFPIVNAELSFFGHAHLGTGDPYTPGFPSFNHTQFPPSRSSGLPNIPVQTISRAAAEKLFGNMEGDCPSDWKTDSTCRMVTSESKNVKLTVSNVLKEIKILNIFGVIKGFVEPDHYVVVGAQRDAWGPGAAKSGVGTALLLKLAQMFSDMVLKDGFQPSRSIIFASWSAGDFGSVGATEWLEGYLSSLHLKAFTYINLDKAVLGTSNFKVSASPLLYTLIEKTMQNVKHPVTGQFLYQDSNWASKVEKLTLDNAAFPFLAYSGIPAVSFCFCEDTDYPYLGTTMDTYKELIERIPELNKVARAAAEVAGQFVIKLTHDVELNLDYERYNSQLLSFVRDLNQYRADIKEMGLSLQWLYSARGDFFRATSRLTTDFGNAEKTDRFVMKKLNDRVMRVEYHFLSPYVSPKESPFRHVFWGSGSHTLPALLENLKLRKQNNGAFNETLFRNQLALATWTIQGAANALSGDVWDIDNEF

B1: VNAR H11 (VNAR)
VNAR: ARVDQTPQTITKETGESLTINCVLRDNDCALSSTYWYRKKSGSTNEERMTKGGRYVETVNSGSKSFSLRINDLTVEDSGTYRCNVYGLVDCASGMNWIDVYGGGTVVTVNA
notes: Shark VNAR single domain; not shown: FLAG tag of the pOsD2 vector
B1: binds [1]; binds [2].

B2: VNAR G02 (VNAR)
VNAR: ARVDQTPQTITKETGESLTINCVLRDRDCALSSTHWYRKKSGSTNEESISKGGRYVETVDSGSKSFSLRINDLTVEDSGTYRCNVYQSPVGRRWWCDVYGGGTVVTVNA
notes: as for B1
B2: binds [3]; binds [4].

B3: H01-Fc (bivalent VNAR-Fc fusion protein) (Fc fusion)
chain: ARVDQTPQTITKETGESLTINCVLRDSNCALSSTYWYRKKSGSTKEESISKGGRYVETVNSGSKSFSLRINDLTVEDSGTYRCNVWHDLVWSVCTTDVYGGGTVVTVNAASGAGGGGS
notes: VNAR fused to the N-terminus of the Fc; bivalent; not shown: human IgG1-Fc region (CH2 and CH3 domains) from a modified pFUSE-hIgG1e3-Fc2 plasmid
With B3 the binding result [5] was “no binding (tested: 10^-6 M)” and the “EC50 (read off the curve)” value [6] was ~8 nM.

B4: F02-hFc (bivalent F02 VNAR-hFc fusion protein) (Fc fusion)
chain: ARVDQTPQTITKETGESLTINCVLRDNDCTLSSTHWYRKKSGSTNEERISKGGRYVETVNSGSKSFSLRINDLTVEDSGTYRCNVYAMTRNWWCDVYGGGTVVTVNAASGAGGGGS
notes: VNAR fused to the N-terminus of the Fc; bivalent, about 75 kDa; also called F02-Fc; F02 Fc; not shown: human IgG1-Fc region (CH2 and CH3 domains) from a modified pFUSE-hIgG1e3-Fc2 plasmid
For B4, the EC50 [7] was 34.2 nM, the binding result [5] was “no binding (tested: 10^-6 M)” and the “EC50 (read off the curve)” value [6] was ~20 nM. For the same binder, the EC50 [8] was 34.3 nM.

B5: VNAR A03 (VNAR)
VNAR: ARVDQTPQTITKETGESLTINCVLRDRDCALSSTHWYRKKSGSTNEESIPKGGRYVETVNSGSKSFSLRINDLTVEDSGTYRCNVYSLTANWWCDVYGGGTVVTVNA
notes: as for B1
B5: binds [9]; binds [2].

B6: VNAR C02 (VNAR)
VNAR: ARVDQTPQTITKETGESLTINCVLRDNDCALSSTYWYRKKSGSTNEESISKGGRYVETVNSGSKSFSLRINDLTVEDSGTYRCNVYQPPSTESLYWCDVYGGGTAVTVNA
notes: as for B1
B6: binds [10]; binds [11].

B7: VNAR C11 (VNAR)
VNAR: B6 VNAR with N27K, Y35S, Q87A, P88R, S90R, T91P, E92D, S93N, Y95N
notes: as for B1
B7: binds [12]; binds [13].

B8: VNAR A07 (VNAR)
VNAR: ARVDQTPQTITKEEGESLTINCVLRDSSSALASTSWYRKKSGSTREETISKGGRYVETVNSGSKSFSLRINDLTVEDSGTYRCNVYELVEDTSAYEIGVDVYGDGTAVTVNA
notes: Shark VNAR single domain; also called clone A07; not shown: FLAG tag of the pOsD2 vector
B8: binds [10]; binds [11].

B9: VNAR H01 (VNAR)
VNAR: ARVDQTPQTITKETGESLTINCVLRDSNCALSSTYWYRKKSGSTKEESISKGGRYVETVNSGSKSFSLRINDLTVEDSGTYRCNVWHDLVWSVCTTDVYGGGTVVTVNA
notes: as for B1
B9: binds [10].
